Source: US20170066831A1 (Janssen / Centocor, published 2017)

Columns and labels:
[1] = molecular target: T1, mouse ST2L extracellular domain (mouse, UniProt P14719 28-326); assay: immunosorbent assay with ECL detection, human-mouse domain-swap constructs
T1 construct: also called mouse ST2L-ECD; muST2L-ECD
T1 sequence: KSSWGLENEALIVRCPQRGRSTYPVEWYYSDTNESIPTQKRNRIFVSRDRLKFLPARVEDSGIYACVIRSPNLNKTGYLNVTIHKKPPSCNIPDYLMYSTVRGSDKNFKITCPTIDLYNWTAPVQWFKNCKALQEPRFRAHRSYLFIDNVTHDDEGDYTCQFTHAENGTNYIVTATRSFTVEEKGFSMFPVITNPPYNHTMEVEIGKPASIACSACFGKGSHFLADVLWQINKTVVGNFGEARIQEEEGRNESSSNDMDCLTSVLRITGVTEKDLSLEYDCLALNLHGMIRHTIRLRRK
Method: (§1) Antibody binding to ST2L domain I, II and III was determined using standard capture ELISA assay using electrochemiluminescent detection format (Meso-Scale Discovery (MSD) technology). 10 μg/mL of each antibody was coated onto each well of an MSD HighBind plate (5 μL/well) for 2 hr at room temperature. […] The plate was covered with aluminum foil and incubated for 1 hr at room temperature with gentle shaking. The plate was then washed 3 times with HEPES wash buffer. MSD read buffer (150 μl) was added to each well, and the plate was then read using an MSD Sector Imager 6000.

[2] = molecular target: T2, human ST2L extracellular domain with C-terminal His6 tag (human, UniProt Q01638 19-328); assay: as above
T2 construct: also called huST2L-ECD; ST2L-ECD
T2 sequence: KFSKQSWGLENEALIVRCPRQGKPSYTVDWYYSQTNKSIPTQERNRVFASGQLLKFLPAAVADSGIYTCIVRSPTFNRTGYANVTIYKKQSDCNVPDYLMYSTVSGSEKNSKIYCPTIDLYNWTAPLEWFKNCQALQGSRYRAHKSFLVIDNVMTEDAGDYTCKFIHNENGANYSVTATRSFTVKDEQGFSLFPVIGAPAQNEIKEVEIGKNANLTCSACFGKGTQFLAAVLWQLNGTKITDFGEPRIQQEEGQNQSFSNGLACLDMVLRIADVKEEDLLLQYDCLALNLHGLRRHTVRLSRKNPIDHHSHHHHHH
Method: as §1

B1: CNTO3914 (antibody, mouse IgG1, V domains shown)
VH: EVQLVESGGGLLQPGRSLKLSCTASGFIFSHYGMAWVRQAPTKGLEWVSSIITDGTSTYYRDSVKGRFTISRDNAKNTQYLQMDSLRSEDTATYYCARQSDDYFDYWGQGVMVTVSS
VL: DVVLTQTPVSLSVTLGDQASISCKSSQSLEYSDGDSYLEWYLQKPGQSPQLLIYGVSNRFSGVPDRFIGSGSGTDFTLKISRVEPEDLGVYYCFQATHDPFTFGSGTKLEIK
notes: Rat hybridoma C1999 V regions cloned into mouse IgG1 background; also called C1999
Does B1 bind [1]?
Result: binds

Does B1 bind [2]?
Result: no binding
